Assay: soluble fraction after stress (log2 fold change); higher = more stays soluble; pooled small domains, quantitative proteomics
Settings: stress: 50 degC
Summary of the method: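 Pooled custom libraries of small protein domains were measured in a high-throughput format, with quantitative proteomics as the read-out. Each library was stressed at 50°C. Aggregation propensity is given as the base-two logarithm of the fold change in how much of each protein stays soluble after the stress. Higher values mean a larger share of the protein remains in solution.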
In the case of “HMADPRFHSEIMLSKIESLLSGKADSDVSNYSIQGRSLTKMSLQELMDARESYDGLVKSEKAKLDAKY”, the “soluble fraction (log2)” value is reported as 0.0495. For “HMADPVTPQDLIRWSEALAGIARTGLGFTQSLYEQERFEEVLAVAADMRVAAGSSYNPDDLVHEWMKSVG”, the “soluble fraction (log2)” value was -0.292. With “HMADQVVGQLGMVTQRIDNLQQTGRVSANGLDWAARSENGQPIPQGMPVEVLRIEGVKLIVRPVN” the “soluble fraction (log2)” value was -0.0238. In the case of “HMADTIEVVVQVNGKVRAKISTSPEVFADSTKLQELALADANVQKFIAGQTIRKVIIPKGTKLLNIV”, the “soluble fraction (log2)” value is reported as -0.227. In the case of “HMADTSPEGVQKLIKAFEQFGVSKDDIEGFIQRRVDAITPANVVSLRKIFTSLRDGMSSAKDWFKGA”, the “soluble fraction (log2)” value is reported as 0.00107. In the case of “HMADVIKLVNTSVLNVRSGAGINYSKIGSLTQGTKVNIISESNGWSKINYNGKIGYISSQYVSEVS”, the “soluble fraction (log2)” value is reported as -0.206. In the case of “HMADVLLKHGSSGDYVWDLQYRLKTLSLFDQEMTGYFGPHTRQAVVNFQRKYGLPADGVVGPATWRALRK”, the “soluble fraction (log2)” value is reported as -2.27. In the case of “HMADVPSTIFEAYRILGLNPEAPPVAVKKVVDALRMSWHPDHARSEPDRRHREERIKQINAAWDLLKGV”, the “soluble fraction (log2)” value is reported as 0.148. With “HMADVYFDGKFLGETPVTVAVSTTGKPAHEISLIRGGYEPWSTTYQGNPRPGQTATVMAILVHA” the “soluble fraction (log2)” value was 0.287. In the case of “HMAEAAVELSQQILARLLEAGGSLPLSDKSSPEDIHRLFGVSKRTFKKAIGGLYKKGLILIHPERIELP”, the “soluble fraction (log2)” value is reported as -0.588. With “HMAEAETVKFVGNSLLLVSGAAKGERLSVYTVGGQHVLSADATKPVDVAALHSGVYVVRTTNGVITKIVK” the “soluble fraction (log2)” value was -0.749. In the case of “HMAEATATVTASEMVVRSGPSSSYSVLGSLEKGTVVTVLAASDGIAKISYKGNTGYARIVDMELNSA”, the “soluble fraction (log2)” value is reported as -0.0414. With “HMAEDDAVQKAVREAVAESADAVADYKAGSERALNFIVGVVMKKTRGKASPGEVHRLVKAEVEK” the “soluble fraction (log2)” value was 0.4. With “HMAEDLRTLDGIDEDLLRDLAQAGITTRDGLAELSIDELREITGVEPGEAEKIILAARAHWFETDE” the “soluble fraction (log2)” value was -0.135. For “HMAEEGEQAASNTAAQAEDRAAELAAAGEKGKQITKTLVAEFGIPKNEAYRLALDAVAAVKAER”, the “soluble fraction (log2)” value was -0.105. For “HMAEEPLRIWTDLQGRSIEASFIKFSGNNIVIKMKSGRDYEVARSLFSPGDQKYLSDLKKSTPE”, the “soluble fraction (log2)” value was -0.701. With “HMAEERVLSVPQSLAGERLDAALASLMPDYSRSRLASWIKEGLVTVDGAGAMPKQKLWGGETLRVQAQPT” the “soluble fraction (log2)” value was 0.463. For “HMAEKAVELTENEKAIQTILSNGALEIGELKTKLELSGKQWDVALKGLAKHGITQVSKVEGVVTVGL”, the “soluble fraction (log2)” value was 0.136. In the case of “HMAEKGIGRVNADWLNMRTSPGGEVLTVLKQGTELQVIGRSGSWLEVQHGNEQGYVSSRYITIQP”, the “soluble fraction (log2)” value is reported as -0.17. In the case of “HMAEKVIVVADSITVGELAEKLNLPVTNLIGELFKNGIVSTINQRIDFETASIIVEELGLDVELERK”, the “soluble fraction (log2)” value is reported as -0.0299. In the case of “HMAELNLPVRKIGGEDYYYRQVKKKETIYGISKELGITKEDIIKYNPSVASGLQRNQILYFPVKDFK”, the “soluble fraction (log2)” value is reported as -0.0957. In the case of “HMAELVISVKADGTIHYQDRQLTKEALAAVLETRPEALLNLYVDEKAPFEAFVGVVDIARLKRGGHFVIST”, the “soluble fraction (log2)” value is reported as -0.632. In the case of “HMAENPAYTKGVVNRLYKIRATPYYSYSYNVDQKTYEGRGKQYGEYENLHIGDTITVYYQRSNPSNSEA”, the “soluble fraction (log2)” value is reported as -0.414. With “HMAEPIEKIIIEGNQRIEALTIQSYLLLRVGEPFNRQLMNQTLKSLYATGYFSDVAVTRVSSSLLVK” the “soluble fraction (log2)” value was 0.133. In the case of “HMAEPLEIGDTVRIIDGFYGGEIGVISELVNPDAKNAEFEQVRVRLDQDTELALPIHNVERVRL”, the “soluble fraction (log2)” value is reported as 0.25. With “HMAEPRVQEVYFEFDGKQVEAGQVVSLIEQAYKNEGHQIGRIKDLKVYINSEEGKAYYVINGDDGEGKYIE” the “soluble fraction (log2)” value was 0.0517. For “HMAESLHVTAAALFEGRAMLGIDGSRRLLRVGETSPEGVKLVSATAREAVIEIDGRRQTLAPGRDT”, the “soluble fraction (log2)” value was 0.0658. With “HMAESSLPKMPRDESKYIYHSVQPGETVYSLSKRYSVSESDIVKSNPGIDITKLSLGLEVAIPRI” the “soluble fraction (log2)” value was 0.354.

From the domain aggregation screens of Martell et al. (2025)
